Read-outs that look alike come from different tables or passages of the source. Bridge positions count the residues as written; N and C are the ends. Ends that are not written are not given here. Peptide text beside a SMILES is read from it.
Legend:
[1] = target: T1, truncated human EPO receptor (Homo sapiens, UniProt P19235); assay: EPO dependent cell proliferation assay, FDC-P1/trER cells; type: cell-based; conditions: for EC50: read-out: EPO-ED50 truncated human receptor; for change in potency of dimer versus parent monomer (in parentheses), truncated human receptor: ratio of ED50 values
T1 construct: expressed in transfected cells; host or cells: FDC-P1/trER cells (murine FDC-P1 derived)
T1 sequence (P19235 25-468 limits assumed): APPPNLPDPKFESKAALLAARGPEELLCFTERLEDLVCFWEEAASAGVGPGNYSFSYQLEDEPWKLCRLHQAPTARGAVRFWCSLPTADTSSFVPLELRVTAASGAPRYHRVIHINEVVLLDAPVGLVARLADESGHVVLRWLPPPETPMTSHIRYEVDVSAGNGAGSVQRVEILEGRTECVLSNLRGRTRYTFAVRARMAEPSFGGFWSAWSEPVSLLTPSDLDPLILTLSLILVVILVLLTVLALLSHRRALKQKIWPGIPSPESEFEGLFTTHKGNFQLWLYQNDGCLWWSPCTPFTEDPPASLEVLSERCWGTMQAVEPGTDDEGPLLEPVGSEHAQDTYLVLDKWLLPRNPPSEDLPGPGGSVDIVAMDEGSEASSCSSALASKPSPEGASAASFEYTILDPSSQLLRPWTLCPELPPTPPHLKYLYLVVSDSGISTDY
Procedure: (§1) After 24 hours, the cells were counted, resuspended at 800,000 cells/ml and dispensed at 40,000 cells/well. Stock solutions of the peptide dimer (5 mM in PBS) and peptide (10 mM in DMSO) were prepared and dispensed in triplicate to final concentrations of 1×10^-10 M through 1×10^-5 M and adjusted to a final volume of 0.2 ml. […] After a 42 hr incubation at 37° C. (ca. 2 cell doublings) 1 μCi/well of [^3 H] thymidine was added and the incubation continued for 6 hr at which time the cells were harvested and counted to assess [^3 H]thymidine incorporation as a measure of cell proliferation.

murine EPO receptor = target: T2, murine EPO receptor (Mus musculus, UniProt P14753); assay: EPO dependent cell proliferation assay, FDC-P1/ER cells; type: cell-based; conditions: for EPO-ED50 murine receptor / change in potency of dimer versus parent monomer (in parentheses), murine receptor: FDC-P1/ER; for EPO-ED50 murine receptor: [3H]thymidine incorporation, amount giving half of maximal activity obtained with EPO; for change in potency of dimer versus parent monomer (in parentheses), murine receptor: ratio of ED50 values
T2 construct: expressed in transfected cells; host or cells: FDC-P1/ER cells
T2 sequence (P14753 25-507): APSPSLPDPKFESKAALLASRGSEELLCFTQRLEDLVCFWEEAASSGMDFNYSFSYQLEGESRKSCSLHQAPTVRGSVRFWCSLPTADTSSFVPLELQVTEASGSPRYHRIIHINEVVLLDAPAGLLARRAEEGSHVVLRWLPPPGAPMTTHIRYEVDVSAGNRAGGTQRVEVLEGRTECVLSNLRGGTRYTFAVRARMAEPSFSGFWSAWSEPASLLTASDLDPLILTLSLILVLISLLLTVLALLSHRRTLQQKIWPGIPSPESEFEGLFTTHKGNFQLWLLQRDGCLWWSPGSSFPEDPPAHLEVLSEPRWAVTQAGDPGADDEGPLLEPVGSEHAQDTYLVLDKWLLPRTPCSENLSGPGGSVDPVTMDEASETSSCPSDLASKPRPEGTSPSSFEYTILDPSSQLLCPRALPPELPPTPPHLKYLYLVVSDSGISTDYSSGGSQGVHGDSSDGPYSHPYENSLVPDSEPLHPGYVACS
Procedure: as §1

[2] = target: T3, extracellular domain of the human erythropoietin receptor (EPO binding protein, EBP) (Homo sapiens, UniProt P19235); assay: Immobilized EBP based [125I]EPO competition binding assay; conditions: for Relative Binding (binding relative to Seq. I. D. No. 8): IC50 in [125I]EPO competition on EBP beads, relative to Seq. I. D. No. 8 (IC50 5 μM)
T3 construct: made in house; host or cells: E. coli
T3 sequence (P19235 25-250 limits assumed): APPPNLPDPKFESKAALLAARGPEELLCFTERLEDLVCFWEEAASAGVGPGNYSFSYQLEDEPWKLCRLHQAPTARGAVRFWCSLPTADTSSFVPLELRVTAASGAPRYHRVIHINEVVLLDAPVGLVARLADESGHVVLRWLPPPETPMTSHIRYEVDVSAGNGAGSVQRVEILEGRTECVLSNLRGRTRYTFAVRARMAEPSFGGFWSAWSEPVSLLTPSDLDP
Procedure: The iodoacetyl activation chemistry of Sufolink beads (Pierce Chemical Co, Rockford, Ill.) is specific for free thiols and assures that the linkage is not easily reversible. EBP-Sulfolink beads were made as follows: SulfoLink gel suspension (10 ml) was mixed with of coupling buffer (40 ml: 50 mM Tris, pH 8.3, 5 mM EDTA) and the gel was allowed to settle. […] The mixture was rocked gently for 30 minutes at room temperature and the beads were allowed to settle for 1 hour at room temperature. The supernatant was removed and retained. The beads were washed twice with 20 ml of coupling buffer. The washes were recovered as well. The beads were then treated with 20 ml of 0.05M cysteine for 30 minutes at room temperature to block unbound sites. Finally, the beads were washed with 50 ml of 1M NaCl, then with 30 ml of PBS, and resuspended in 20 ml of PBS and stored at 4° C. The amount of EBP which was covalently bound to the beads was determined by comparing the OD280 of the original EBP solution to the total OD280 recovered in the reaction supernatant and the two 20 ml washes.
Competitive binding analysis assays of candidate peptides and dimer peptides were performed as outlined below. Individual peptides were dissolved in DMSO to prepare a stock solution […]. Dimer peptides were contained within PBS at a concentration of 5 mM.
Initial assay points with no added peptide were included in each assay to determine total binding. Binding mixtures were incubated overnight at room temperature with gentle rocking. The beads were then collected using Micro-columns (Isolab, Inc.) and washed with 3 mL of wash buffer. The columns containing the washed beads were placed in 12×75 mm glass tubes and bound radioactivity levels determined in a gamma counter.

[3] = FDC-P1/trER, [3H]thymidine incorporation, amount giving half of maximal activity obtained with EPO

Row | EC50 [1, 3] [nM] | Relative Binding (binding relative to Seq. I. D. No. 8) [2] | EPO-ED50 murine receptor (murine EPO receptor) [nM] | Compound | also measured
1 | 60 | 4 | 30 | Ac-GGTYSCHFGPLTWVCKPQGG (Ac-GGTYSCHFGPLTWVCKPQGG-NH2; disulfide 6-15 (inferred)) [Seq. I. D. No. 20] | –
2 | 80 | – | 100 | GGLYACHMGPMTWVCQPLRG [Seq. I. D. No. 14] | –
3 | 100 | 60 | 2000 | mPEG/Seq. I. D. No. 8, peak #1: mono-PEG conjugate of peptide SEQ ID NO: 8 with m-SPA-PEG (MW ca. 5000), one PEG coupled; control (GGTYSCHFGPLTWVCKPQGG-NH2; disulfide 6-15 (inferred); not fully specified; also: one mPEG 5000 (m-SPA-PEG) conjugated, site not given here) [reference compound] | –
4 | 400 | > 40 | 1000 | mPEG/Seq. I. D. No. 8, peak #2: conjugate of peptide SEQ ID NO: 8 with m-SPA-PEG (MW ca. 5000), two PEG molecules coupled; control (GGTYSCHFGPLTWVCKPQGG-NH2; disulfide 6-15 (inferred); not fully specified; also: two mPEG 5000 (m-SPA-PEG) conjugated, sites not given here) [reference compound] | –

Further lines, the compound ahead of its results:

Row | Compound | EC50 [1, 3] [nM] | Relative Binding (binding relative to Seq. I. D. No. 8) [2] | EPO-ED50 murine receptor (murine EPO receptor) [nM] | also measured
5 | CC(C)C[C@@H]1NC(=O)[C@@H]2CCCN2C(=O)CNC(=O)[C@H](Cc2ccccc2)NC(=O)[C@H](Cc2c[nH]cn2)NC(=O)[C@@H](NC(=O)[C@H](CO)NC(=O)[C@H](Cc2ccc(O)cc2)NC(=O)[C@@H](NC(=O)CNC(=O)CN)[C@@H](C)O)CSSC[C@@H](C(=O)N[C@@H](CCCCN)C(=O)N2CCC[C@H]2C(=O)N[C@@H](CCC(N)=O)C(=O)NCC(=O)NCC(N)=O)NC(=O)[C@H](C(C)C)NC(=O)[C@H](Cc2c[nH]c3ccccc23)NC(=O)[C@H]([C@@H](C)O)NC1=O [Seq. I. D. No. 8] (H-GGTYSCHFGPLTWVCKPQGG-NH2; disulfide 6-15) | – | – | – | EC50 [1]: 90 nM
6 | CC(C)C[C@@H]1NC(=O)[C@@H]2CCCN2C(=O)CNC(=O)[C@H](Cc2ccccc2)NC(=O)[C@H](Cc2c[nH]cn2)NC(=O)[C@@H](NC(=O)[C@@H](N)CO)CSSC[C@@H](C(=O)N[C@@H](CCCCN)C(N)=O)NC(=O)[C@H](C(C)C)NC(=O)[C@H](Cc2c[nH]c3ccccc23)NC(=O)[C@H]([C@@H](C)O)NC1=O [peptide (SEQ ID NO: 18)] (H-SCHFGPLTWVCK-NH2; disulfide 2-11) | – | – | – | activity in the in vitro cell proliferation assay (in words) (murine EPO receptor; cell line not given): inactive
7 | SAP2/Seq. I. D. No. 8 covalent dimer #1: PEG (SPA2, MW ca. 3400) dimer of peptide GGTYSCHFGPLTWVCKPQGG, lot #1, Example 2 (GGTYSCHFGPLTWVCKPQGG-NH2; disulfide 6-15 (inferred); not fully specified) | 1.5 | 4 | 10 | increase in potency versus parent peptide, human receptor line [1]: ~60 fold; change in potency of dimer versus parent monomer (in parentheses), truncated human receptor ([1]; FDC-P1/trER): 60 X; ED50, cell line containing the human EPO receptor ([1]; text of Example 11): 1.5 nM; IC50 ([2]; concentration reducing [125I]EPO binding to EBP beads by 50%, 0.5 nM [125I]EPO): 20000 nM; increase in potency versus parent peptide, murine receptor line (murine EPO receptor): 10 fold; change in potency of dimer versus parent monomer (in parentheses), murine receptor (murine EPO receptor): 10 X; ED50, cell line containing the murine EPO receptor (murine EPO receptor; text of Example 11): 10 nM
8 | SAP2/Seq. I. D. No. 8 covalent dimer #2: PEG (SPA2, MW ca. 3400) dimer of peptide GGTYSCHFGPLTWVCKPQGG, lot #2, Example 3 (GGTYSCHFGPLTWVCKPQGG-NH2; disulfide 6-15 (inferred); not fully specified) | 2 | 3 | 10 | increase in potency versus parent peptide, human receptor line [1]: 45 fold; change in potency of dimer versus parent monomer (in parentheses), truncated human receptor ([1]; FDC-P1/trER): 45 X; increase in potency versus parent peptide, murine receptor line (murine EPO receptor): 10 fold; change in potency of dimer versus parent monomer (in parentheses), murine receptor (murine EPO receptor): 10 X
9 | SAP2/Seq. I. D. No. 13 covalent dimer: PEG (SPA2) dimer of peptide GGTYSCHFGPLTWVCKPQ, Example 4 (GGTYSCHFGPLTWVCKPQ-NH2; disulfide 6-15 (inferred); also: PEG (SPA2) covalent dimer) | 2 | – | – | change in potency of dimer versus parent monomer (in parentheses), truncated human receptor ([1]; FDC-P1/trER): 10 X
10 | SAP2/Seq. I. D. No. 20 covalent dimer: PEG (SPA2) dimer of peptide Ac-GGTYSCHFGPLTWVCKPQGG, Example 5 (Ac-GGTYSCHFGPLTWVCKPQGG-NH2; disulfide 6-15 (inferred); also: PEG (SPA2) covalent dimer) | 50 | 12 | 200 | change in potency of dimer versus parent monomer (in parentheses), murine receptor (murine EPO receptor): -7 X
11 | dimeric peptide: PEG (SPA2) dimer of peptide SCHFGPLTWVCK (SEQ ID NO: 18), Example 7 (SCHFGPLTWVCK-NH2; disulfide 2-11 (inferred); also: PEG (SPA2) covalent dimer) | – | – | – | proliferation (cpm) relative to background ([1]; 10^-5 M, human EPO receptor cell line, FIG. 8): twice as many cpm as background

— patent US5767078A, “Agonist peptide dimers” (priority 1995, dated 1998)
